From publication PMC5800818, “A Numb–Mdm2 fuzzy complex reveals an isoform-specific involvement of Numb in breast cancer” (The Journal of Cell Biology, 2018)
One block for each binder: values may come before it. Non-standard residues stand in square brackets, D forms with d. No end group written: not given here. pY = N[C@@H](Cc1ccc(OP(=O)(O)O)cc1)C(=O)O

Experiments:
Conditions in all cases: both partners purified
[1] = target: T1, Numb-PTBi (Numb^20–175), purified (human, UniProt P49757 20-175); experiment: crystal structure; Numb-PTBi with a 1.3 molar excess of GPpY peptide; hanging drops at 20 °C, 25% PEG 3350, 0.2 M lithium sulfate, 0.1 M Bis-Tris pH 6; space groups F222 and P212121
T1 construct: For NMR the protein was isotope-labelled; source: E. coli BL21 Rosetta pLysS, purified (NTA beads, Superdex-200)
T1 sequence (looked up): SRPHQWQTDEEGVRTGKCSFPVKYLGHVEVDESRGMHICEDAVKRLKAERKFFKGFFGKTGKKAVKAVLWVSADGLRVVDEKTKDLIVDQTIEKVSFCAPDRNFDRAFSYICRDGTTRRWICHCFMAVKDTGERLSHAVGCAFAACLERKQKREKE

[2] = target: T2, Numb PTBi (Numb^20–175), His fusion (human, UniProt P49757 20-175); experiment: pull-down; GST-Mdm2 fragments (1 µM) on GSH beads, purified Numb fragments (5 µM in Fig. 1 F; 2 and 4 µM or 1 and 2 µM in Fig. 6), 2 h at 4 °C, 10 mM Hepes pH 7.5, 0.15 M NaCl, 5% glycerol, 0.1% Tween-20; Coomassie staining
T2 construct: source: bacterially expressed as His fusion, purified
T2 sequence (looked up): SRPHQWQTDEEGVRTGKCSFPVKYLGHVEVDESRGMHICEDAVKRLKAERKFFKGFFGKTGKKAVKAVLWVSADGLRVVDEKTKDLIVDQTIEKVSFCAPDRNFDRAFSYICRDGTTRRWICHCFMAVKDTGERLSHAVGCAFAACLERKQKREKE

[3] = target: T1, Numb-PTBi (Numb^20–175), purified; experiment: as above
[4] = target: T3, rhodamine-labeled Mdm2^216–302 (human, UniProt Q00987-11 216-302, rhodamine label (site not stated)); experiment: fluorescence polarisation; 50 nM rhodaminated Mdm2 216–302 with increasing concentrations of the ligand; 10 mM Tris-HCl pH 7.5, 0.15 M NaCl, 0.5 mM EDTA, 1 mM DTT
T3 construct: as m32 with the label; source: purified, rhodaminated in vitro
T3 sequence (Q00987 210-296): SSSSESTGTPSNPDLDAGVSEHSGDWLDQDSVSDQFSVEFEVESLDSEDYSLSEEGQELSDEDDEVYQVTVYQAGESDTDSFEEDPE

binding result [1]: binds
B1: GPpY phosphopeptide (AYIGPpYL) (peptide)
peptide: AYIGP[pY]L
notes: also called GPpY peptide; source: synthetic peptide (United Biosystems)

binding result [2]: binds
binding result [3]: binds
B2: GST-Mdm2^250–290 (domain or fragment, human, UniProt Q00987-11 250-290, looked up)
chain: QFSVEFEVESLDSEDYSLSEEGQELSDEDDEVYQVTVYQAG
notes: Mdm2 residues 250–290, a short stretch of the acidic domain; also called minimal Mdm2 fragment; source: E. coli BL21 Rosetta, purified (Glutathione Sepharose)

fold reduction of binding affinity against PTBi [4]: ~30 fold
B3: Numb-PTBo, purified (domain or fragment)
chain: SRPHQWQTDEEGVRTGKCSFPVKYLGHVEVDESRGMHICEDAVKRLKATGKKAVKAVLWVSADGLRVVDEKTKDLIVDQTIEKVSFCAPDRNFDRAFSYICRDGTTRRWICHCFMAVKDTGERLSHAVGCAFAACLERKQKREKE
